This note sets out measurements from US20180142023A1 (Bristol-Myers Squibb, published 2018).

This experiment concerns the target human CD28 (human, UniProt P10747 19-220). Kind of experiment: cell-based or functional assay.

B1: 1h-76 (other)
VL: DIQMTQSPSSLSASVGDRVTITCRASQYIGTRLVWYQQKPGKAPKLLIYQSSLLQSGVPSRFRGSGSGTDFTLTISSLQPEDSATYYCQQTALVPYTFGQGTKVEIKR
On to B1, for which the “Luciferase assay (EC50)” value turned out to be 1800 nM.
